In the DeepSol protein solubility set:

Assay: soluble on expression in E. coli; label from the status in PepcDB or PDB records

Sequence	soluble on expression in E. coli
ASGFAGHLSVGFSPVVGPVVLPESIRRFRAAYPDVLVSVIEASIDLLLPGLRNGDFDIVVGRLEEVAMPEDVRCETLYDEPVCLVAGRAHPLAGRRRISWEDAQAYPWISPQQGTPLRMRLEMELAVAGQPLPRHAVESTSVQTNVALLDRS	not soluble
MSLDEKKLKALAVELAKGLKTEADLNSFSRMLAKLTVETVLNAELADHPGYEKNAPKTGSNTRNGYSSKTVLCDDGEIELNTPRDRENTFEPQLLKKHQTRITQMDSQILSLYAKGMTTREIVATFKEMYDANVSPSLISKVTDAVKEQVTERQNRQPDALYPIVYMDCIVVKVRQNGSVINKAVFLALGINTEGQKELLGMWLAENEGEKFWLSVLTELKTRGVQDILIACVDGLKGFPDAINSVFPQPHIQLCIIHMVRNSLKYVAWKGYKVATSGLRLRPKRRHEGHHHHHH	not soluble
ATFIEQQVGGNLTEASLALRLPTLLPYNGVLFLGNSLLVRLVDALTQLPESYPVYTNRGASGIDGLLATAAGIGIGSNKPVVAVIGDTSTLYDLNSFALFKNVTQPTLIFVINNNGGAIFDMLPVDEQVKDQFYRLPHNGDFSQIAAMFDLKYAHPYTWADLNSVVKQAYSRRKATLIEIKTNPSDG	not soluble
MKVKTQFVCNQCAAIFKQWAGQCTQCGAWNSIVEEGIMPENKTLRSGQWANQRSVITAVEDVVMDKIVRMDCGISELNRVLGGGLVYGSVVLIGGDPGIGKSTLLLQTLANLSMQETVLYVTGEESLQQVAMRAQRLGLPLAGLRLLAETQVESIIAQAQKEKPRIIVVDSVQTIFTEAISSAPGGVSQVRESAAQLVRYAKMTNTAIFLVGHVTKEGTLAGPRVLEHMVDSVLYFEGQNDSRFRVIRAIKNRFGAVNELGVFAMTDKGLKEVANPSAIFLSRQPEPTPGSAVMVTWEGSRPMLVEVQALVDEAHGQQAKRVTAGLEHNRLAILLAVLHRHGGIATYDQDVFINVVGGVKVTETASDLALLAAVISSLRNRIFDSETIIFGEVGLAGEIRPVQSGQERIKEAIKHGFKRAIVPFANAPKQQIDSMTVEPVKHLRDVLEKM	not soluble
MNFQEENENIKNDIEINLLHSAEADSVEAMMDLAVYGLAAMVAKHNKTRGEQLVLQAIAGHMRKLLAALPETESLVQTGKVYRRLEDLIFKTYLPEQ	not soluble
MSQYSLQVGLTPEGPCSYLPKQKERLAVVMEQELHTALGYQALIRLGFRRSGETIYKPMCEHCDACKPLRINANQFKPSKSQKRLLNKLSSFRWELKSEMDGNWFDLYERYINTRHKTGSMYPANQKQFFEFSHSHWLTNQFLHIYENETLIAIAVSDVLSDSISAMYTFFEPEHPLSLGTISVLIQLKLCKELSKEWLYPGYQIDDCPAMKYKDQYKPNQKLVNMVWQGLEHHHHHH	soluble
MSLNNDDSPALTLDEYKQAQAIVILGGGSYQTKELYAETASGAPQLERLRYAAFLQKETGLPILTTGYSLIGISEGDLMAKELNQFFNVPTQWIENKARNTEENASFTKNILIKDHIQKIILVTNQWHMKRAKYLFEKQGFDVLPAAAASYGSKGNLSAKSFIPDLGALNSNMVLLKEWIGYWKAHYVEEGHHHHHH	not soluble
MLDKLDAALRFQQEALNLRAQRQEVLAANIANADTPGYQARDIDFASELKKVMQRGRDATSVVALTMTSTQHIPAQALTPPTAELQYRIPDQPSLDGNTVDMDRERTQFADNSLQYQMSLSALSGQIKGMMNVLQSGN	not soluble
MASLIQVRDLLALRGRMEATQISHTLHAPQPMIDAMLNQLEIMGKAVRIPEEPDGCLSGSCKSCPEGKACLREWWALR	not soluble
MDSTMSEHADVLIVGGGPVGALAALRLARQGRSVLLLEARAKDAEVRDARALALSWHSRRLLEEAGAWPADLPATAIDTVHVSQQGGCGRTRLDSADLGLPHLGAVVDYPALVAGLGGALEAAGVQVIWQCRVTAVKSLSQYACAEVETPQGKQLLTGSLLVLAEGGALAETLPGIRRLTHDYRQCALLAEVETELPPQGVAYERFAHAGPFALLPHGERYMLVWTRSQADAERLAAADAAVLRDELQQAFGERQGRILSIGPRASFPLALRQANRVTSGRVALIGNAAQTMHPVAAQGLNLGLRDAVGLADALENAADAGDARALKRYADSRKLDSHAVVGFTHGLIKLFDGHHPLMSRLRGVGMTALDALPSLRRKFAGHLVFGVRGLEHHHHHH	soluble
